Consider three molecules from US20260263609A1 (NEW YORK UNIVERSITY, published 2026).

Residue numbers refer to the chain shown, from its start.

Experiment [1] concerns the target T1, NRAS (human, UniProt P01111 1-174, limits assumed).
T1 construct: also called Neuroblastoma-RAS; NRAS (WT)
The experiment in a line: BLI; biotinylated monobody on streptavidin tip, NRAS(WT)·GTPγS at 50, 25, 12.5 and 6.25 nM; global 1:1 fit. (In general: In BLI a coated tip is dipped into the sample, and binding shifts an interference pattern.)
Protocol: (§1) In these experiments a biotinylated monobody was immobilized on streptavidin coated BLI tip, and then binding of RAS proteins was measured.
(§2) These monobodies were produced as purified proteins and their binding characteristics against purified RAS proteins were analyzed using biolayer interferometry (BLI) (FIGS. 2A-2C).

Experiment [2] concerns the target T1, NRAS. The experiment in a line: BLI; biotinylated monobody on streptavidin tip, NRAS(WT)·GDP at 50, 25, 12.5 and 6.25 nM; global 1:1 fit.
Protocol: as §1, §2
Experiment [3] deals with T2, NRAS (K135R) (human, UniProt P01111 1-174, limits assumed).
T2 construct: also called NRAS mutant with the H/KRAS-mimicking mutation K135R
The experiment in a line: BLI; sensorgrams at 100 nM and 25 nM with fit; nucleotide state not marked.

In experiment [4] the target is T1, NRAS. The experiment in a line: BLI; biotinylated monobody on streptavidin tip, NRAS at 50, 25, 12.5 and 6.25 nM; global 1:1 fit; upper right panel, untitled on this sheet, NRAS(WT)·GTPγS by the layout of FIG. 2A.
Protocol: as §1, §2
The target in experiment [5] is T1, NRAS. The experiment in a line: BLI; biotinylated monobody on streptavidin tip, NRAS at 50, 25, 12.5 and 6.25 nM; global 1:1 fit; upper left panel, untitled on this sheet, NRAS(WT)·GDP by the layout of FIG. 2A.
Protocol: as §1, §2
The target of experiment [6] is T1, NRAS. The experiment in a line: BLI; biotinylated monobody on streptavidin tip, NRAS at 50, 25, 12.5 and 6.25 nM; global 1:1 fit; upper right panel, untitled on this sheet, NRAS(WT)·GTPγS by the layout of FIG. 2A. The source holds these as a separate data set.
Protocol: as §1, §2
In experiment [7] the target is T1, NRAS. The experiment in a line: BLI; biotinylated monobody on streptavidin tip, NRAS at 50, 25, 12.5 and 6.25 nM; global 1:1 fit; upper left panel, untitled on this sheet, NRAS(WT)·GDP by the layout of FIG. 2A. This is another data set of the same source.
Protocol: as §1, §2

B1: Mb(NRAS_19) (designed binder)
chain: VSSVPTKLEVVAATPTSLLISWDAPAVTVDFYVITYGETGSYYPYAQEFKVPGSKSTATISGLSPGVDYTITVYAYQVIGAIWKYYSPISINYRT
The Kd is a measure of binding affinity in units of concentration. Higher therefore signals weaker binding. As to B1, the Kd in experiment [1] amounted to 0.83 nM; in experiment [2], 1.8 nM; in experiment [3] it was 6.6 nM.

B2: Mb(NRAS_24) (designed binder)
chain: B1 chain with S41G, Y43A, P44W, Y45A, A46Y
As to B2, the Kd is 0.52 nM in experiment [4], 2.6 nM in experiment [5] and 5.6 nM in experiment [3].

B3: Mb(NRAS_20) (designed binder)
chain: B1 chain with S41A
For B3, the dissociation constant (Kd) in experiment [6] turned out to be 1.1 nM; in experiment [7] it was 3.3 nM; in experiment [3], 9.5 nM.
